Data: article PMC11947619, “Molecular mechanism of Mad2 conformational conversion promoted by the Mad2‐interaction motif of Cdc20” (Protein Science : A Publication of the Protein Society, 2025)

How the values were obtained:
O‐Mad2 = settings: in vitro, ref Lad et al., [2009], Simonetta et al.; cited from earlier work
From the text: Juxtaposing the accessible Cdc20^MIM adjacent to O‐Mad2 by the MCC‐assembly scaffold involves the dimerization of an O‐Mad2 molecule with Mad1‐bound C‐Mad2 (Chen et al., [2023]; Fischer et al., [2022]; Lara‐Gonzalez et al., [2021]; Piano et al., [2021]).

[1] = Spontaneous O-Mad2 to C-Mad2 conversion / stability of the open state; assay type: physicochemical; settings: NMR backbone assignment samples
Protocol: FIGURE 2 NMR fingerprinting of Mad2. (a) Structural orientations of Trp75 (on the αB helix) and Trp167 (on the “safety‐belt”) in Mad2 produce distinct indole NH resonances. […] NMR spectra for O‐Mad2^R133A and “empty” C‐Mad2^L13A/R133A and C‐Mad2^R133A:Cdc20^MIM‐111‐138 are from Fischer et al. ([2022]) (c) Mad2 conversion rates vary with different MIM peptides. Conversion was traced over 24 h at 25°C using the Trp75 and Trp167 side‐chain resonances as reporters. MIM peptides were added at two‐fold molar excess to Mad2 (100 μM). Each spectrum required 12 min of acquisition time, therefore the 15 min time‐points represent the earliest spectra in the time‐resolved series. The schematics show the conformation of Mad2 as indicated by the tryptophan side‐chain resonances. A black tick marks when conversion is considered complete. NMR data for O‐Mad2^R133A with and without Cdc20^MIM‐111‐138 shown are from Fischer et al. ([2022]). In the case of full‐length Cdc20, the MIM sequence is sequestered by an auto‐inhibitory intramolecular interaction within Cdc20 itself, which prevents it from being readily accessible for binding to C‐Mad2 (Piano et al., [2021]). Conversely, isolated MIM peptides lack this auto‐inhibitory mechanism, allowing them to bind directly to C‐Mad2 without obstruction. […]

Molecule	enhancement of O-Mad2 to C-Mad2 conversion rate by dimerization with C-Mad2 (O‐Mad2) [fold]	limited stability (slow O-Mad2 to C-Mad2 conversion) [1] [days]
C‐Mad2: Mad2 in the closed active state	3 to 4	
Mad2^LL: loop‐less Mad2: residues 109–117 (…) replaced with GSG (protein, left off: His6, N-terminal, state not stated | DoubleStrep, N-terminal, state not stated, loop‐less Mad2: residues 109–117 (…) replaced with GSG) MALQLSREQGITLRGSAEIVAEFFSFGINSILYQRGIYPSETFTRVQKYGLTLLVTTDLELIKYLNNVVEQLKDWLYKCSVQKLVVVISNIESGEVLERWQFDIECDKGSGEKSQKAIQDEIRSVIRQITATVTFLPLLEVSCSFDLLIYTDKDLVVPEKWEESGPQFITNSEEVRLRSFTTTIHKVNSMVAYKIPVND		< 3
